What all share (format): physicochemical
A short description of data set [1]: Retention of peptides on Greiner polypropylene V-bottom wells. The conditions noted are these: 400V scan; for Untreated fluorescence: unwashed; for Retained fluorescence: washed 15 minutes in 1 M NaCl in 10 mM tris-HCl (pH 8.0). The method, then: (§1) The retention of peptides 2DOS-1 to 2DOS-16 (see above) on polypropylene and polystyrene surfaces was compared:
(§2) 5 mM tris-HCl (pH 8.0) in 75% (v/v) aqueous acetonitrile was used as the solvent for the peptides and for TAMRA.
(§3) 20 μl aliquots of 5 μM peptides 2DOS-1 to 2DOS-16 and 5 μM TAMRA were pipetted into the wells of a Costar V-bottomed polypropylene microtitre plate, a Greiner V-bottomed polypropylene microtitre plate, and a Greiner V-bottomed polystyrene microtitre plate according to the scheme shown in FIG. 26:
(§4) The peptide samples were allowed to evaporate to dryness in the dark.
(§5) The peptide samples in the top two rows of the microtitre plates were then incubated for 15 minutes at room temperature in 250 μl of 1 M NaCl in 10 mM tris-HCl (pH 8.0).
(§6) After incubation, the wash buffer was pipetted up and down eight times in the well before removing the supernatant.
(§7) The washed and untreated peptide samples were then resuspended in 50 μl of 10 mM tris-HCl (pH 8.0) in 50% (v/v) aqueous acetonitrile.
(§8) The microtitre plates were imaged at 200 μm resolution on a Typhoon Trio Plus variable mode imager (Amersham Biosciences) with the green (532 nm) laser and the 580 BP 30 filter at the PMT voltages indicated below and at normal sensitivity. The scan height was set at +3 mm and the sample was pressed during scanning.
(§9) The fluorescence images were analysed using ImageQuant TL v2003.03 (Amersham Biosciences).

The nature of data set [2]: Retention of peptides on Greiner polystyrene V-bottom wells. The settings on record: 400V scan; for Untreated fluorescence: unwashed; for Retained fluorescence: washed 15 minutes in 1 M NaCl in 10 mM tris-HCl (pH 8.0). On the procedure: as §1, §2, §3, §4, §5, §6, §7, §8, §9
The nature of data set [3]: Retention of peptides in V-bottomed polypropylene wells. The settings on record: V-bottom wells, 500V scan; for Untreated fluorescence: unwashed; for Retained fluorescence: washed 15 minutes in 1 M NaCl in 10 mM tris-HCl (pH 8.0). The method, then:
(§10) The retention of peptides 2DOS-1 to 2DOS-16 (see above) on polypropylene wells of different geometries was investigated:
(§11) 10 mM tris-HCl (pH 8.0) in 50% (v/v) aqueous acetonitrile was used as the solvent for the peptides and for TAMRA.
(§12) 1 μl aliquots of 10 μM peptides 2DOS-1 to 2DOS-16 and 10 μM TAMRA were pipetted into the wells of a Costar V-bottomed polypropylene microtitre plate and a Greiner flat-bottomed polypropylene microtitre plate according to the following scheme as shown in FIG. 22:
as §4
(§13) The peptide samples in the top two rows of the microtitre plates were then incubated for 15′ minutes at room temperature in 250 μl of 1 M NaCl in 10 mM tris-HCl (pH 8.0).
as §6, §7
(§14) The microtitre plates were imaged at 200 μm resolution on a Typhoon Trio Plus variable mode imager (Amersham Biosciences) with the green (532 nm) laser and the 580 BP 30 filter at the PMT voltages indicated below and at normal sensitivity. The scan height was set at the platen and the sample was pressed during, scanning.
as §9

A short description of data set [4]: Retention of peptides in flat-bottomed polypropylene wells. The settings on record: flat-bottom wells, 500V scan; for Untreated fluorescence: unwashed; for Retained fluorescence: washed 15 minutes in 1 M NaCl in 10 mM tris-HCl (pH 8.0). On the procedure: as §10, §11, §12, §4, §13, §6, §7, §14, §9
The nature of data set [5]: Retention of peptides on Costar polypropylene V-bottom wells. The conditions noted are these: 400V scan; for Untreated fluorescence: unwashed; for Retained fluorescence: washed 15 minutes in 1 M NaCl in 10 mM tris-HCl (pH 8.0). On the procedure: as §1, §2, §3, §4, §5, §6, §7, §8, §9
Data set [6] in a line: Retention of peptides 2DOS-1 to 2DOS-16 on a hydrophobic surface (polypropylene microtitre plate wells), water wash. The settings on record: 400V scan; for Initial fluorescence (×10^3): 100 μl of 10 μM peptide before drying and washing; for Recovered fluorescence (×10^3): dried, washed ten times with 250 μl water, resuspended. The method, then: The retention of peptides 2DOS-1 to 2DOS-16 on a hydrophobic surface (the wells of a polypropylene microtitre plate) was then investigated.
as §11
100 μl aliquots of 10 μM peptides 2DOS-1 to 2DOS-16 and 10 μM TAMRA were placed in the wells of a Costar microtitre plate as shown in FIG. 13:
The microtitre plate was imaged at 200 μm resolution on a Typhoon Trio Plus variable mode imager (Amersham Biosciences) with the green (532 nm) laser and the 580 BP 30 filter at the PMT voltages indicated below and at normal sensitivity. The scan height was set at +3 mm and the sample was pressed during scanning.
The peptides were allowed to evaporate to dryness overnight in the dark and the microtitre plate was again scanned as described above.
The wells were then washed ten times with 250 μl of water.
The residual surface-bound peptides were finally resuspended in 100 μl of 10 mM tris-HCl (pH 8.0) in 50% (v/v) aqueous acetonitrile and the microtitre plate was again scanned as described above.
as §9
Quantification data (using the data from the 400V scan) is given in Table 2 and shown graphically in FIG. 15.

Ends that are not written are not given here.

With “N-TAMPA- Asp-Norleu- Ala-Norleu-Ser- Norleu-Lys-C [Peptide 2DOS-5]”, the Percent retention in data set [1] was 27%; in data set [2], 23%; in data set [3], 36%; in data set [4], 45%; in data set [5], 31%. For the same substance, the Untreated fluorescence in data set [1] was 3,817,250; in data set [2], 745,029; in data set [3], 8,664,667; in data set [4], 14,337,629; in data set [5] it was 5,331,763. In addition, the Retained fluorescence was 1,048,978 in data set [1]; 171,500 in data set [2]; 3,116,833 in data set [3]; 6,492,170 in data set [4]; 1,651,850 in data set [5]. The “Initial fluorescence (×10^3)” value in data set [6] is 32,473 ×10^3. In data set [6], the “Recovered fluorescence (×10^3)” value is 1,270 ×10^3.

On to “N-TAMPA-Asp-Asp- Ala-Asp-Ser-Asp- Lys-C ({TAMRA}-DDADSDK) [Peptide 2DOS-8]”, for which the Percent retention in data set [1] is 2%; in data set [2] it was 1%; in data set [3], 2%; in data set [4], 4%; in data set [5], 1%. In addition, the Untreated fluorescence is listed as 3,903,470 in data set [1]; 842,984 in data set [2]; 10,130,734 in data set [3]; 17,576,485 in data set [4]; 6,587,741 in data set [5]. Further, the Retained fluorescence is reported as 80,770 in data set [1]; 5,071 in data set [2]; 202,943 in data set [3]; 637,350 in data set [4]; 93,455 in data set [5]. Besides, the “Initial fluorescence (×10^3)” value in data set [6] is 33,615 ×10^3. Also, in data set [6], the “Recovered fluorescence (×10^3)” value is recorded as 3 ×10^3.

In the case of “N-TAMPA-Asp-Asp- Asp-Ala-Asp-Ser- Asp-Lys-Asp-C ({TAMRA}-DDDADSDKD) [Peptide 2DOS-4]”, the Percent retention in data set [1] was found to be 1%; in data set [2] it was 1%; in data set [3], 2%; in data set [4], 2%; in data set [5] it was 1%. In addition, the Untreated fluorescence in data set [1] is listed as 3,937,734; in data set [2] it was 783,885; in data set [3] it was 8,265,596; in data set [4], 11,885,905; in data set [5] it was 5,661,181. In addition, the Retained fluorescence in data set [1] is 50,669; in data set [2] it was 6,714; in data set [3] it was 159,080; in data set [4], 198,507; in data set [5] it was 74,143. Besides, the “Initial fluorescence (×10^3)” value in data set [6] was 32,313 ×10^3. The “Recovered fluorescence (×10^3)” value in data set [6] is 0 ×10^3.

Take “N-TAMPA-Asp-Asp- Asp-Asp-Asp-Asp- Asp-Asp-Asp-C ({TAMRA}-DDDDDDDDD) [Peptide 2DOS-12]”: the Percent retention in data set [1] worked out at 1%; in data set [2] it was 1%; in data set [3], 1%; in data set [4] it was 1%; in data set [5], 0%. In addition, the Untreated fluorescence in data set [1] is on record as 3,235,590; in data set [2] it was 684,832; in data set [3] it was 6,777,661; in data set [4], 12,982,170; in data set [5], 4,432,090. Besides, the Retained fluorescence in data set [1] is 20,175; in data set [2], 3,788; in data set [3], 52,365; in data set [4], 106,741; in data set [5], 18,180. The “Initial fluorescence (×10^3)” value in data set [6] is recorded as 26,433 ×10^3. For the same substance, the “Recovered fluorescence (×10^3)” value in data set [6] was 1 ×10^3.

“N-TAMPA-Asp-Asp- Asp-Asp-Asp-Asp- Asp-C ({TAMRA}-DDDDDDD) [Peptide 2DOS-16]”: the Percent retention stood at 1% in data set [1]; 0% in data set [2]; 0% in data set [3]; 1% in data set [4]; 0% in data set [5]. In addition, the Untreated fluorescence in data set [1] is listed as 3,813,060; in data set [2], 789,858; in data set [3] it was 9,782,527; in data set [4] it was 15,555,465; in data set [5], 5,387,850. Further, the Retained fluorescence was 25,885 in data set [1]; 3,864 in data set [2]; 44,420 in data set [3]; 229,090 in data set [4]; 16,194 in data set [5]. The “Initial fluorescence (×10^3)” value in data set [6] was 30,335 ×10^3. For the same substance, the “Recovered fluorescence (×10^3)” value in data set [6] is given as 3 ×10^3.

As for “N-TAMPA-Norleu- Asp-Norleu-Asp- Norleu-Asp-Norleu- Asp-Norleu-C [Peptide 2DOS-9]”, the Percent retention in data set [1] is listed as 12%; in data set [2], 10%; in data set [3] it was 14%; in data set [4], 16%; in data set [5], 17%. The Untreated fluorescence in data set [1] is 3,621,913; in data set [2], 626,304; in data set [3], 11,662,691; in data set [4], 13,456,698; in data set [5] it was 7,102,251. Further, the Retained fluorescence was 439,252 in data set [1]; 62,023 in data set [2]; 1,608,482 in data set [3]; 2,148,849 in data set [4]; 1,184,648 in data set [5]. Also, the “Initial fluorescence (×10^3)” value in data set [6] was 34,587 ×10^3. Moreover, the “Recovered fluorescence (×10^3)” value in data set [6] is 2,382 ×10^3.

“N-TAMRA-Asp- Norleu- Asp-Norleu-Asp- Norleu-Asp-C [Peptide 2DOS-13]”: the Percent retention is on record as 10% in data set [1]; 9% in data set [2]; 11% in data set [3]; 17% in data set [4]; 8% in data set [5]. Also, the Untreated fluorescence is reported as 3,635,229 in data set [1]; 708,162 in data set [2]; 7,623,227 in data set [3]; 12,935,739 in data set [4]; 4,886,617 in data set [5]. The Retained fluorescence in data set [1] is given as 378,287; in data set [2] it was 62,590; in data set [3], 806,022; in data set [4] it was 2,162,164; in data set [5], 387,738. Besides, in data set [6], the “Initial fluorescence (×10^3)” value is given as 26,181 ×10^3. In data set [6], the “Recovered fluorescence (×10^3)” value is given as 25 ×10^3.

(Values after patent publication US20090192048A1, “METHOD OF PRODUCING A […] AGENT FOR BINDING A LIGAND” (priority 2005, published 2009).)
